Literature values in article PMC8821138 (Food chemistry, 2021).

Details: ref Parisi et al., 2020; Yagami et al., 2000

NaD1: defensin, literature example of digestion resistance (RECKTESNTFPGICITKPPCRKACISEKFTDGHCSKILRRCLCTKPC; UniProt Q8GTM0 26-72, looked up)
Resistance in in vitro gastrointestinal digestions: demonstrated resistance
